Experimental data: patent US20160067305A1 (UNIVERSITY OF HONG KONG, published 2016)

Biological target: T1, FLAG-tagged SIRT1 (ectopically expressed in HEK293 cells) (UniProt Q96EB6 1-747, limits assumed)
T1 construct: Immunoprecipitated from lysate of transfected HEK293 cells; also called FLAG-SIRT1; not shown: FLAG tag
T1 sequence (looked up): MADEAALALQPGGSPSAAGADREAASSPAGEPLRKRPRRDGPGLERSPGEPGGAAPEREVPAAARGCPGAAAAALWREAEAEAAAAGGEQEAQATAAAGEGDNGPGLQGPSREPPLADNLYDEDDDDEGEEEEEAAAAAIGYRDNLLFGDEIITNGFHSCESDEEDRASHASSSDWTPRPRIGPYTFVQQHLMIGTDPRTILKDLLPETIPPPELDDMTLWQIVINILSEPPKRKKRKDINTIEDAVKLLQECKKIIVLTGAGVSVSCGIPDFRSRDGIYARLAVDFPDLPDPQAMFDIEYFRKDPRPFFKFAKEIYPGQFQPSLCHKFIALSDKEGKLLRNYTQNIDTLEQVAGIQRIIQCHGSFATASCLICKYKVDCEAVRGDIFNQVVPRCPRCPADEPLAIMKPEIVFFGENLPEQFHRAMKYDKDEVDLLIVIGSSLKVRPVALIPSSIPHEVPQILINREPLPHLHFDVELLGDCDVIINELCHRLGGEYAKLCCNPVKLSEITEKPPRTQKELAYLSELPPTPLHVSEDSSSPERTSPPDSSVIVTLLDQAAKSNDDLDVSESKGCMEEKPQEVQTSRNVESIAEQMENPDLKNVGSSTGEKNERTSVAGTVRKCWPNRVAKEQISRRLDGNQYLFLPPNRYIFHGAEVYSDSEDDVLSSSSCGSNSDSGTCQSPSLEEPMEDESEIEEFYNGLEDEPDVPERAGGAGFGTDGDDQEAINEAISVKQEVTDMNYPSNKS
Assay: co-immunoprecipitation in transfected HEK293 cells, Western blot (FIG. 1F)
Source text: This was further confirmed by co-immunoprecipitation in HEK293 cells expressing FLAG-SIRT1 together with either lamin A or lamin C.

B1: lamin C (ectopically expressed in HEK293 cells) (other, UniProt P02545-2 1-572, looked up)
chain: METPSQRRATRSGAQASSTPLSPTRITRLQEKEDLQELNDRLAVYIDRVRSLETENAGLRLRITESEEVVSREVSGIKAAYEAELGDARKTLDSVAKERARLQLELSKVREEFKELKARNTKKEGDLIAAQARLKDLEALLNSKEAALSTALSEKRTLEGELHDLRGQVAKLEAALGEAKKQLQDEMLRRVDAENRLQTMKEELDFQKNIYSEELRETKRRHETRLVEIDNGKQREFESRLADALQELRAQHEDQVEQYKKELEKTYSAKLDNARQSAERNSNLVGAAHEELQQSRIRIDSLSAQLSQLQKQLAAKEAKLRDLEDSLARERDTSRRLLAEKEREMAEMRARMQQQLDEYQELLDIKLALDMEIHAYRKLLEGEEERLRLSPSPTSQRSRGRASSHSSQTQGGGSVTKKRKLESTESRSSFSQHARTSGRVAVEEVDEEGKFVRLRNKSNEDQSMGNWQIKRQNGDDPLLTYRFPPKFTLKAGQVVTIWAAGAGATHSPPTDLVWKAQNTWGCGNSLRTALINSTGEEVAMRKLVRSVTVVEDDEDEDGDDLLHHHHVSGSRR
B1: no binding.
